Results reported in publication doi:10.1101/2023.05.16.540868 (bioRxiv, 2023).
Where two headings read alike, the source gives them in different places.

Columns and labels:
mass photometry [1] = target: the molecule itself; test: mass photometry
mass photometry [2] = target: the molecule itself; test: mass photometry; remark: listed apart in the source

Protein | stoichiometry N (mass photometry [1]) | stoichiometry N (mass photometry [2])
SPD-5(541-677) (domain or fragment, C. elegans, UniProt P91349 541-677, looked up) SQSHIPILHDMQQILDSSAMFLEGQHDVAVNVEQMQEKMSQIREALARLFERLKSSAALFEEILERMGSSDPNADKIKKMKLAFETSINDKLNVSAILEAAEKDLHNMSLNFSILEKSIVSQAAEASRRFTIAPDAE | 2 | 
SPD-5(541-677) R592K (domain or fragment, C. elegans, UniProt P91349 541-677, looked up) SQSHIPILHDMQQILDSSAMFLEGQHDVAVNVEQMQEKMSQIREALARLFEKLKSSAALFEEILERMGSSDPNADKIKKMKLAFETSINDKLNVSAILEAAEKDLHNMSLNFSILEKSIVSQAAEASRRFTIAPDAE | 2 | 
SPD-5(541-677) phosphorylated by PLK-1(CA) (domain or fragment, C. elegans, UniProt P91349 541-677, looked up, phosphorylated by PLK-1(CA) (verified by gel migration shift and MS); sites not printed for this fragment) SQSHIPILHDMQQILDSSAMFLEGQHDVAVNVEQMQEKMSQIREALARLFERLKSSAALFEEILERMGSSDPNADKIKKMKLAFETSINDKLNVSAILEAAEKDLHNMSLNFSILEKSIVSQAAEASRRFTIAPDAE |  | 2
